Measurements reported in US20150299263A1 (FACTOR THERAPEUTICS, published 2015).
Where no end group is shown, it is not given here.

Tests used:
[1] = target: T1, Human receptor grade IGFBP-5 (insulin-like growth factor binding protein 5) (human, UniProt P24593 21-272); assay: VN-peptide array, ligand overlay, immunoblot/ECL, TotalLab spot intensity
T1 construct: Bought recombinant protein, overlaid in solution on the VN-peptide array
Method: (§1) Methanol or ethanol was used to enhance the rehydration of peptide spots that might be hydrophobic. The peptides spotted onto the membranes were activated by incubating in 3 mL of 70% ethanol for five mins. The membranes were subsequently washed three times, 10 minutes each, in 10 mL TBS (Tris Buffered Saline; 8 g NaCl, 0.2 g KCl and 6.1 g Tris Base into 1000 mL of milliQ water, pH 7) with gentle rocking. Membrane blocking was performed by incubating in 10 mL casein-based membrane blocking buffer (MBS; Sigma-Aldrich) overnight at 4° C. The following day, the membranes were washed twice, 10 minutes each, in 10 mL TBS-T (TBS+0.05% Tween-20; pH 7).
(§2) Ligands used to test binding to VN-peptides were IGFBP-3, IGFBP-5 and IGF-II. For ligand binding, four separate solutions of 1 μg/mL ligand in 10 mL MBS buffer were prepared and each membrane was incubated in one of the four ligand solutions overnight at 4° C., with gentle rocking. […] The following day, the membranes were washed three times, 10 minutes each, in 10 mL TBS-T.
(§3) The binding of the ligands to peptides within the membrane was detected using immunoblotting. The membranes were incubated overnight at 4° C. with 10 mL primary antibody solution (in MBS buffer) targeting the respective ligands. The antibodies used were anti-IGFBP-3 (1:10,000), anti-IGFBP-5 (1:10,000) and anti-IGF-II (1:5000) to detect IGFBP-3, IGFBP-5 and IGF-II respectively. The following day, the membranes were washed three times, 10 minutes each, in 10 mL TBS-T and incubated with 10 mL HRP-conjugated secondary IgG antibody diluted 1:15,000 in MBS buffer for 1 hour at room temperature. Following a further three washes of 10 minutes each, the peptide spots were visualized using ECL. The membranes were exposed onto x-ray films and developed using a film processor (AGFA CP 1000), or were imaged directly using the ChemiDoc™ XRS system (BioRad).

[2] = target: T2, Human receptor grade IGFBP-3 (insulin-like growth factor binding protein 3) (human, UniProt P17936 28-291); assay: as above
T2 construct: Bought recombinant protein, overlaid in solution on the VN-peptide array
Method: as §1, §2, §3

[3] = target: T3, Human receptor grade IGF-II (insulin-like growth factor II) (human, UniProt P01344 25-91); assay: as above
T3 construct: Bought recombinant protein, overlaid in solution on the VN-peptide array
Method: as §1, §2, §3

[4] = target: T3, Human receptor grade IGF-II …; assay: VN-peptide array, ligand overlay, immunoblot/ECL

T2 sequence (P17936 28-291 limits assumed): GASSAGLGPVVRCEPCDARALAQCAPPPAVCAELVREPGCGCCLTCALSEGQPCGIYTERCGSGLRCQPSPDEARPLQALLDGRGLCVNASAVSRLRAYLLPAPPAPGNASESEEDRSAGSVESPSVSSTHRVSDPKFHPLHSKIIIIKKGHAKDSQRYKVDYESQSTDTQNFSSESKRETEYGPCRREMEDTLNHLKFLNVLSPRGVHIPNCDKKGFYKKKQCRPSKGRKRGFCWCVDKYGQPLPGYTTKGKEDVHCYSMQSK
T1 sequence (P24593 21-272 limits assumed): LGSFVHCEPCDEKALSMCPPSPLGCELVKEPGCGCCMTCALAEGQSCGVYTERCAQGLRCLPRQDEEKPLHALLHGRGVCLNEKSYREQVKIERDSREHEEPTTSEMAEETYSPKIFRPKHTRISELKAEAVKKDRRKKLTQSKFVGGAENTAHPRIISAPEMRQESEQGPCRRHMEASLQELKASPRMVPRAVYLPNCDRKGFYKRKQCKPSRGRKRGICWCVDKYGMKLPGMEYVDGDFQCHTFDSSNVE
T3 sequence (P01344 25-91 limits assumed): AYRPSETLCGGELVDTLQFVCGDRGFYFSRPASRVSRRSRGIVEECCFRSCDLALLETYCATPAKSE

Row | Binder | Intensity (against -ve control) [1] | Intensity (against -ve control) [2] | Intensity (against -ve control) [3] | binding result [4]
1 | Ac-RRVDTVDPPYPRSIAQ (also: immobilised on cellulose membrane) [VN-peptide 8D (array grid J7)] | 8 fold over negative controls | 4 fold over negative controls | 11 fold over negative controls | 
2 | KGKQYWEYQFQHQPSQ (not fully specified (N-terminus); also: free end capped by acetylation, immobilised on cellulose membrane (SPOT synthesis)) [VN-peptide 4A (array grid F12)] |  | 6 fold over negative controls |  | 
3 | RVNLRTRRVDTVDPPY (not fully specified (N-terminus); also: free end capped by acetylation, immobilised on cellulose membrane (SPOT synthesis)) [VN-peptide 8B (array grid J5)] | 7 fold over negative controls | 7 fold over negative controls | 17 fold over negative controls | 
4 | SEESNLGANNYDDYRM (not fully specified (N-terminus); also: free end capped by acetylation, immobilised on cellulose membrane (SPOT synthesis)) [VN-peptide 7B (array grid I8)] |  |  | 18 fold over negative controls | 
5 | GIDSRPETLHPGRPQP (not fully specified (N-terminus); also: free end capped by acetylation, immobilised on cellulose membrane (SPOT synthesis)) [VN-peptide 2B (array grid C13)] | 7 fold over negative controls | 2 fold over negative controls |  | 
6 | VDAALALPAHSYSGRE (not fully specified (N-terminus); also: free end capped by acetylation, immobilised on cellulose membrane (SPOT synthesis)) [VN-peptide 3A (array grid F5)] | 3 fold over negative controls | 1 fold over negative controls | 5 fold over negative controls | 
7 | LFSSEESNLGANNYDDYRMDWL (Free synthetic peptide (Mimotopes) in the migration and growth assays; The array carried only its overlapping 16-mers 7A-7C; also called Peptide 7; motif-7 mimic) [VN peptide P7 (LFSSEESNLGANNYDDYRMDWL)] |  |  |  | binds
8 | GRTSAGTRQPQFISRD (not fully specified (N-terminus); also: free end capped by acetylation, immobilised on cellulose membrane (SPOT synthesis)) [VN-peptide 6A (array grid G12)] | 7 fold over negative controls | 2 fold over negative controls | 12 fold over negative controls | 
9 | KYYRVNLRTRRVDTVD (not fully specified (N-terminus); also: free end capped by acetylation, immobilised on cellulose membrane (SPOT synthesis)) [VN-peptide 8A (array grid J4)] | 3 fold over negative controls | 5 fold over negative controls | 5 fold over negative controls | 
10 | CQCDELCSYYQSCCTD (not fully specified (N-terminus); cysteine pairing not given here; also: free end capped by acetylation, immobilised on cellulose membrane (SPOT synthesis)) [VN-peptide 1A (array grid A13)] | 11 fold over negative controls | 10 fold over negative controls |  | binds
11 | ALALPAHSYSGRERVY (not fully specified (N-terminus); also: free end capped by acetylation, immobilised on cellulose membrane (SPOT synthesis)) [VN-peptide 3B (array grid F6)] | 3 fold over negative controls | 1 fold over negative controls | 10 fold over negative controls | 
12 | KPEGIDSRPETLHPGR (not fully specified (N-terminus); also: free end capped by acetylation, immobilised on cellulose membrane (SPOT synthesis)) [VN-peptide 2A (array grid C12)] | 5 fold over negative controls | 4 fold over negative controls |  | 
13 | SAGTRQPQFISRDWHG (not fully specified (N-terminus); also: free end capped by acetylation, immobilised on cellulose membrane (SPOT synthesis)) [VN-peptide 6B (array grid G13)] | 1.5 fold over negative controls | 1 fold over negative controls | 0 fold over negative controls | 
14 | LFSSEESNLGANNYDD (not fully specified (N-terminus); also: free end capped by acetylation, immobilised on cellulose membrane (SPOT synthesis)) [VN-peptide 7A (array grid I7)] |  |  | 17 fold over negative controls | 
15 | QYWEYQFQHQPSQEEC (not fully specified (N-terminus); also: free end capped by acetylation, immobilised on cellulose membrane (SPOT synthesis)) [VN-peptide 4B (array grid F13)] |  | 12 fold over negative controls |  | 
16 | SNLGANNYDDYRMDWL (not fully specified (N-terminus); also: free end capped by acetylation, immobilised on cellulose membrane (SPOT synthesis)) [VN-peptide 7C (array grid I9)] |  |  | 12 fold over negative controls | 
17 | MQRDSWEDIFELLFWG (not fully specified (N-terminus); also: free end capped by acetylation, immobilised on cellulose membrane (SPOT synthesis)) [VN-peptide 5C (array grid G7)] |  | 4.5 fold over negative controls |  | 
18 | FAMMQRDSWEDIFELL (not fully specified (N-terminus); also: free end capped by acetylation, immobilised on cellulose membrane (SPOT synthesis)) [VN-peptide 5B (array grid G6)] |  | 4.5 fold over negative controls |  | 
19 | FEHFAMMQRDSWEDIF (not fully specified (N-terminus); also: free end capped by acetylation, immobilised on cellulose membrane (SPOT synthesis)) [VN-peptide 5A (array grid G5)] |  | 1.5 fold over negative controls |  | 
20 | Ac-LRTRRVDTVDPPYPRS (also: immobilised on cellulose membrane) [VN-peptide 8C (array grid J6)] | 9 fold over negative controls | 10 fold over negative controls | 13 fold over negative controls | 
21 | DSWEDIFELLFWGRTS (not fully specified (N-terminus); also: free end capped by acetylation, immobilised on cellulose membrane (SPOT synthesis)) [VN-peptide 5D (array grid G8)] |  | 2.5 fold over negative controls |  | 
22 | TRQPQFISRDWHGVPG (not fully specified (N-terminus); also: free end capped by acetylation, immobilised on cellulose membrane (SPOT synthesis)) [VN-peptide 6C (array grid G14)] | 5 fold over negative controls | 1.5 fold over negative controls | 1.5 fold over negative controls | 
